In experiment [1] the target is human FcRn-mmh (human) (UniProt P55899). The experiment is described as follows: SPR, hFcRn.mmh captured, 25 C, pH 7.4; kinetics inconclusive.
Experiment [2] has as its target hTSLPR and hIL-7R on Baf3 cells (human) (UniProt Q9HC73).
Experiment [3] shares this target. The source holds these as a separate data set.
The target is the same in experiment [4]. The experiment is described as follows: cell-based or functional assay.

Chain of UniProt Q9HC73 (Q9HC73 23-371, chain 1 of 2): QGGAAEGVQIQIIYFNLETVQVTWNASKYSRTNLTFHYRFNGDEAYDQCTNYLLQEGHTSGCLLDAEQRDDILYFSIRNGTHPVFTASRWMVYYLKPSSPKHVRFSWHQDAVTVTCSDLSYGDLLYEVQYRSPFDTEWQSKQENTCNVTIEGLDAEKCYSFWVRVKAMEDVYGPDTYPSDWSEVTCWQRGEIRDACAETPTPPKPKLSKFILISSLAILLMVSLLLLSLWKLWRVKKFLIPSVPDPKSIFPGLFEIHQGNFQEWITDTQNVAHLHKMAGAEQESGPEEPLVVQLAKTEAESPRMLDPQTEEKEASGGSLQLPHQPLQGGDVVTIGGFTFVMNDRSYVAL
Chain of UniProt Q9HC73 (P16871 21-459, chain 2 of 2, further chain): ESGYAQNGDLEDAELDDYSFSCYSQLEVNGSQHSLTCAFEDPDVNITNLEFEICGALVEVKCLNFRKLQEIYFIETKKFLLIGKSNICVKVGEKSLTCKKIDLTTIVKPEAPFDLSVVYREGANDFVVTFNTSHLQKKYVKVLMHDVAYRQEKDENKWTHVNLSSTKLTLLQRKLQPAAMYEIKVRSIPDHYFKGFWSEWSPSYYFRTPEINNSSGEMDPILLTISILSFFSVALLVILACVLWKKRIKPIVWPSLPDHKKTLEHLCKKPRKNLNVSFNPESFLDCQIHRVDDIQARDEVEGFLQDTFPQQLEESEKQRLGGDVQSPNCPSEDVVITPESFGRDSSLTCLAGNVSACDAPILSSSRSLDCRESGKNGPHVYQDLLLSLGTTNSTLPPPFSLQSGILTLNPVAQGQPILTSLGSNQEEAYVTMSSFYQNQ
Chain of UniProt P55899 (P55899 24-297): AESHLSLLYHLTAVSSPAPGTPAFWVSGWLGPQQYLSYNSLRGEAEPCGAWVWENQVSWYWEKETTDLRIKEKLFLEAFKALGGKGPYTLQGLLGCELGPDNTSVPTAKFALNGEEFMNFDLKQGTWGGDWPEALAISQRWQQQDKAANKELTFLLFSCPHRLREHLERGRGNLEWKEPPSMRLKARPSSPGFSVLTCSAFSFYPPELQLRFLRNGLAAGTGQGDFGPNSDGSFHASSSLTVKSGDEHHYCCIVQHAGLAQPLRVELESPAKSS

In turn, “REGN1932, anti-FelD1 IgG1 isotype control (antibody)” came in with a 5 uM mAb Bound (RU) in experiment [1] of 9.1 RU.

Consider “REGN1945, anti-fel d 1 IgG4 isotype control (antibody)”, for which, in experiment [1], the 5 uM mAb Bound (RU) was determined as 8 RU. Consider “REGN4009, recombinant hTSLP.mmh (from UniProt Q969D9 29-159) (ligand)”, for which the EC50 of hTSLP mmh in the Stat3-Luc reporter assay (number only, curve not drawn) in experiment [2] is 0.075 nM. In experiment [3], this substance gave an EC50, STAT3-luciferase dose response of hTSLP mmh in BAF3/hIL7R/hTSLPR/Stat3-Luc cells of 0.0613 nM. For the substance “human TSLP (hTSLP) (from UniProt Q969D9 29-159) (ligand)”, the hTSLP EC50 [M], STAT3-Luciferase reporter assay in experiment [4] was determined as 4.35e-11 M.
